Source: paper PMC12307460
“And” between values parts separate entries of the source, which are not always exact repeats. Identical values can stand only once.

Columns and labels:
[1] = target: MERS-CoV spike (S) protein of strain HCoV-EMC/2012 (clade A) (MERS-CoV strain HCoV-EMC/2012 (clade A)) (UniProt K9N5Q8)
[2] = target: MERS-CoV spike (S) protein of strain MERS-CoV/KOR/KNIH/002_05_2015 (clade B) (MERS-CoV strain MERS-CoV/KOR/KNIH/002_05_2015 (clade B))
[3] = target: MERS-CoV spike (S) protein of strain NRCE-HKU270 (clade C) (MERS-CoV strain NRCE-HKU270 (clade C))
[4] = target: spike (S) protein of bat merbecovirus BtCoV/Ii/GD/2014-422 (BtCoV/Ii/GD/2014-422 (bat MERSr-CoV))
[5] = target: spike (S) protein of pangolin merbecovirus MjHKU4r-CoV (MjHKU4r-CoV (pangolin HKU4r-CoV))

Sequence of UniProt K9N5Q8 (K9N5Q8 18-1353): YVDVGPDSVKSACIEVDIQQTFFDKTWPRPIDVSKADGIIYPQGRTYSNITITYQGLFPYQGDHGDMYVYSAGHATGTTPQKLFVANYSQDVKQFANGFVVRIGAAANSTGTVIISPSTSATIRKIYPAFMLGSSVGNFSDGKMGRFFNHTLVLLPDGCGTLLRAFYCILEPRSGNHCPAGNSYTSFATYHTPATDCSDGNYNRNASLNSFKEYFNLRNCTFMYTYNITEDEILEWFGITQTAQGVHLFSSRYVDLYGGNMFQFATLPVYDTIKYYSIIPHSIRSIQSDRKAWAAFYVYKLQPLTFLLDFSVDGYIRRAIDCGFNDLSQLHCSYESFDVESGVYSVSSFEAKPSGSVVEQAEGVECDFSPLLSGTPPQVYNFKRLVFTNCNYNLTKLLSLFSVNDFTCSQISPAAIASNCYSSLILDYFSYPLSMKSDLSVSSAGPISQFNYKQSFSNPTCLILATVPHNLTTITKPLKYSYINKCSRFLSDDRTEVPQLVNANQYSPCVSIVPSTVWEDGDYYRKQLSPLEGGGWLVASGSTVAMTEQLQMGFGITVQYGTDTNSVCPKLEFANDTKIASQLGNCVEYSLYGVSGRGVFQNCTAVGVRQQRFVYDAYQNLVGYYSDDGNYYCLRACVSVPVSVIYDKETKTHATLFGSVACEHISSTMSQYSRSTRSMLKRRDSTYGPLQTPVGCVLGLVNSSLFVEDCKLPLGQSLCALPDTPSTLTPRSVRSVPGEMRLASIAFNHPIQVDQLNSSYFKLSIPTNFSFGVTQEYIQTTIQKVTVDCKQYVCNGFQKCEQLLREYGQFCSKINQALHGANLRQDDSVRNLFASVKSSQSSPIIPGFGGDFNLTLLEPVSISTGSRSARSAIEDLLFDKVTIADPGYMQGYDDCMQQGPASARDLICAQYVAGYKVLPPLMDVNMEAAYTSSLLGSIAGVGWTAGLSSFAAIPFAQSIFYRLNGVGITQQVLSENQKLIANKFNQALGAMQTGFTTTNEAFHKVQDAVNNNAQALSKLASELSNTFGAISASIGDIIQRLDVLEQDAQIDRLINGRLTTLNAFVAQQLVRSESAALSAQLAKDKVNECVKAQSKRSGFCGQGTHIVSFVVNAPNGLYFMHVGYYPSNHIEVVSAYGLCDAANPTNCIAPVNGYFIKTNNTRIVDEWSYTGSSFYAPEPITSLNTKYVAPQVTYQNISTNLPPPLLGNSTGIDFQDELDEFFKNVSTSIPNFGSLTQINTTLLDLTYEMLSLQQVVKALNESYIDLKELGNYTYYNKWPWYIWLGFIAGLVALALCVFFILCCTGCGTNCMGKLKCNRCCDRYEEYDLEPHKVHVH

Row | Substance | IC50 of neutralisation of S pseudovirus, average [1] | IC50 of neutralisation of S pseudovirus, average [2] | IC50 of neutralisation of S pseudovirus, average [3] | IC50 of neutralisation of S pseudovirus, average [4] | IC50 of neutralisation of S pseudovirus, one of three assays [4] | IC50 of neutralisation of S pseudovirus, average [5] | IC50 of neutralisation of S pseudovirus, one of three assays [5] | IC50 of neutralisation of S pseudovirus, one of three assays [2] | IC50 of neutralisation of S pseudovirus, one of three assays [3] | IC50 of neutralisation of S pseudovirus, one of three assays [1]
1 | CDC2-C2 (antibody) | 0.041 µg/mL | 0.17 µg/mL | 0.12 µg/mL | > 5 µg/mL | > 5 µg/mL | > 5 µg/mL | > 5 µg/mL | – | – | –
2 | MCA1 (antibody) | 0.059 µg/mL | 0.096 µg/mL | 0.067 µg/mL | > 5 µg/mL | > 5 µg/mL | > 5 µg/mL | > 5 µg/mL | 0.082 µg/mL and 0.06 µg/mL and 0.15 µg/mL | 0.084 µg/mL and 0.047 µg/mL and 0.071 µg/mL | –
3 | 7D10 (antibody) | 50 µg/mL | 7.5 µg/mL | > 50 µg/mL | 23 µg/mL | – | > 50 µg/mL | > 50 µg/mL | – | > 50 µg/mL | 50 µg/mL
4 | m336 (antibody) | 0.14 µg/mL | 0.85 µg/mL | 0.36 µg/mL | > 5 µg/mL | > 5 µg/mL | > 5 µg/mL | > 5 µg/mL | – | – | –
5 | JC57-14 (antibody) | 0.037 µg/mL | 0.064 µg/mL | 0.055 µg/mL | > 5 µg/mL | > 5 µg/mL | > 5 µg/mL | > 5 µg/mL | 0.09 µg/mL and 0.043 µg/mL and 0.06 µg/mL | 0.066 µg/mL and 0.059 µg/mL and 0.039 µg/mL | 0.039 µg/mL and 0.023 µg/mL and 0.047 µg/mL
6 | G4 (antibody) | 8.1 µg/mL | 7.7 µg/mL | 9.3 µg/mL | 11 µg/mL | – | > 25 µg/mL | > 25 µg/mL | – | 5.2 µg/mL and 8.7 µg/mL and 14 µg/mL | 5.9 µg/mL and 6.4 µg/mL and 12 µg/mL
7 | D12 (antibody) | 0.068 µg/mL | 0.19 µg/mL | 0.085 µg/mL | > 5 µg/mL | > 5 µg/mL | > 5 µg/mL | > 5 µg/mL | 0.25 µg/mL and 0.18 µg/mL and 0.14 µg/mL | 0.095 µg/mL and 0.098 µg/mL and 0.061 µg/mL | 0.087 µg/mL and 0.077 µg/mL and 0.041 µg/mL
